Drawing on patent publication US20190381186A1 (TRUSTEES OF BOSTON UNIVERSITY, published 2019), this text covers binding result and Kd for two molecules.

First the molecules themselves.
B1: receiving peptide MK(LKKIKSV)4VGER (peptide)
peptide: MKLKKIKSVLKKIKSVLKKIKSVLKKIKSVVGER
notes: With the docking peptide it is said to form a tetramer of two peptides of each type; also called V/K peptide

Series [1] concerns the molecule itself. The series is described as follows: circular dichroism spectra, 200-260 nm.
Series [2] addresses B1. The series is described as follows: isothermal titration calorimetry (FIG. 2C); ITC, docking peptide with receiving peptide (FIG. 2C).

Consider MKLEEIVSELEEIVSELEEIVTELEEIVSEVGER (also called V/E peptide) [docking peptide MK(LEEIVSE)2LEEIVTELEEIVSEVGER], for which the binding result in series [1] is listed as “no binding (tested: 100 µM)”. The Kd (as a rule, a measure of binding affinity in units of concentration) in series [2] worked out at 62 nM.

With B1, in series [1], the binding result was “no binding (tested: 100 µM)”.
